Earlier results, collected in publication PMC12513479.

How the values were obtained:
IFNAR1 (Homo sapiens) = IFNAR1 (Homo sapiens) (UniProt P17181)
IFNAR2 (Homo sapiens) = IFNAR2 (Homo sapiens) (UniProt P48551)
Chain of UniProt P48551 (P48551 27-243): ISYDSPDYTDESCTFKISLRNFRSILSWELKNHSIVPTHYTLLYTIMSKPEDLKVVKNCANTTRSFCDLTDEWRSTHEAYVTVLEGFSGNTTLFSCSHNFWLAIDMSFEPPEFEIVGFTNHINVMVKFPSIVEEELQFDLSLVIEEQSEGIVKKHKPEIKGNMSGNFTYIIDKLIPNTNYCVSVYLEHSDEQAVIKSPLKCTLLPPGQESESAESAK

Chain of UniProt P17181 (P17181 28-436): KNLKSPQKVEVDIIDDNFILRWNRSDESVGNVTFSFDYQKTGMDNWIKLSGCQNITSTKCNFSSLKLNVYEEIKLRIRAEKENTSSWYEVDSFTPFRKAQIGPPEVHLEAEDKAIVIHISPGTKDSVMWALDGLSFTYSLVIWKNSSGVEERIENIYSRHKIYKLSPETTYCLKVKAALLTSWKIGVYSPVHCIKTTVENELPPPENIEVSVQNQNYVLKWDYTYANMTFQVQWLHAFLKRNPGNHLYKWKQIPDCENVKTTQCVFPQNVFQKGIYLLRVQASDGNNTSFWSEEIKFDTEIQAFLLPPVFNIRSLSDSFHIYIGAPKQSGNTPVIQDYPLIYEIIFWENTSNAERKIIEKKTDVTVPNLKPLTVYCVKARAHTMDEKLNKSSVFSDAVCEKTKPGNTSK

Substance: IFN-β (from UniProt P01574)
- Kd (IFNAR1 (Homo sapiens)): 100 nM
- Kd (IFNAR2 (Homo sapiens)): 0.1 nM
